Data published in the supplement of paper PMC11136658.

Tested on: peptide library, one residue held at a place counted from the Y acceptor
Assay: relative phosphorylation of the sub-library (ratio to the mean residue at this position); higher = residue favoured
Summary of the method: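 Biotinylated Tyr-centred peptide library mixtures, each fixing one residue at one position from −5 to +5, were incubated with purified recombinant kinases in 384-well plates for 90 min with 50 μM ATP plus γ-32P-ATP. Streptavidin membranes captured the peptides, which were rinsed and quantified by phosphorimaging and ImageQuant. At each position, intensities were divided by the sum of the 18 randomized residues (16 for the Ser/Thr-free library) and multiplied by that number. Each value is phosphorylation relative to the mean randomized residue.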

Chain of FGFR4, construct: aa442-end, human (P22455 442-802, looked up): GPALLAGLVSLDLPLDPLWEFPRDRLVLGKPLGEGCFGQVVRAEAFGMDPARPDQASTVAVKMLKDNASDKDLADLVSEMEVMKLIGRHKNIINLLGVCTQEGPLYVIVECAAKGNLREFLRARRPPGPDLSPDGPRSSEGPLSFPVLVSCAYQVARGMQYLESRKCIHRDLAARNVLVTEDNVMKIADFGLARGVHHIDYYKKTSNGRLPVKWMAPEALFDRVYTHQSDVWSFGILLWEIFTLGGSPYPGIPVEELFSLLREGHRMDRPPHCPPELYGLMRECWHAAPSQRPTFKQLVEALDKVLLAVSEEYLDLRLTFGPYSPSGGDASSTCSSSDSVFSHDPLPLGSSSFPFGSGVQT

FGFR4, construct: aa442-end, human (from UniProt P22455)
relative phosphorylation
Conditions	at +1	at +2	at +3	at +4	at +5	at -1	at -2	at -3	at -4	at -5
A fixed	0.811	0.623	0.572	0.823	2.94	0.585	1.06	0.944	1.14	1.01
D fixed	0.352	1.4	0.818	1.14	0.931	2.54	1.38	1.84	1.64	1.42
E fixed	0.566	2.01	0.647	1.39	0.71	2.03	1.75	2.52	2.01	1.38
F fixed	1.94	1.17	1.42	0.906	1.21	0.91	0.593	0.712	0.88	0.793
G fixed	0.379	0.43	0.621	1.21	0.692	0.401	1.08	1.09	1.22	1.31
H fixed	1.55	0.88	0.767	1.13	0.954	0.985	1.05	1	0.977	1.08
I fixed	1.8	1.21	2.44	0.869	0.75	1.89	0.902	0.626	0.732	0.929
K fixed	0.29	0.37	0.27	0.602	0.913	0.311	0.693	0.614	0.699	0.845
L fixed	1.25	1.05	2.03	0.841	0.922	1.12	0.839	0.639	0.808	0.898
M fixed	1.53	1.1	1.53	1.07	0.841	0.828	0.681	0.834	0.767	0.908
N fixed	0.341	1.04	0.425	0.873	0.832	1.03	1.05	1.25	1.03	1.1
P fixed	0.49	0.708	0.891	1.37	0.769	0.65	1.19	0.862	1.1	1.17
Q fixed	0.678	0.705	0.524	0.94	0.927	0.646	1.11	0.901	1.07	1.03
R fixed	0.458	0.535	0.364	0.781	0.865	0.292	0.657	0.73	0.667	0.866
S fixed	0.799	0.864	0.579	0.938	0.916	0.467	1.07	1.07	0.849	0.856
T fixed	0.807	0.934	0.686	0.88	0.625	0.966	1	0.883	0.644	0.807
V fixed	1.74	1.2	1.92	0.817	0.81	1.38	1.25	0.683	0.741	0.779
W fixed	2.22	1.77	1.5	1.43	1.4	0.952	0.639	0.794	1.02	0.811
pThr fixed	0.826	1.95	0.731	1	0.75	1.29	1.3	1.84	1.85	1.29
pTyr fixed	3.85	6.17	1.24	1.34	0.82	7.16	1.79	2.69	2.45	1.36

FGR, construct: Full length, human (from UniProt P09769)
relative phosphorylation
Conditions	at +1	at +2	at +3	at +4	at +5	at -1	at -2	at -3	at -4	at -5
A fixed	2.2	1.05	0.869	0.85	0.72	0.929	0.952	0.88	1.03	0.985
D fixed	0.746	0.588	0.464	0.599	0.901	1.07	1.48	1.52	1.29	1.1
E fixed	0.732	0.949	0.432	0.759	0.875	1.89	1.37	1.52	1.36	0.85
F fixed	0.643	1.12	2.33	1.21	1.25	0.601	0.711	0.915	1.07	1.07
G fixed	2.67	0.888	0.927	1.31	0.896	0.558	1.5	1.15	1.15	1.24
H fixed	0.762	0.846	0.969	0.953	0.936	1.45	0.995	0.999	0.933	0.966
I fixed	0.827	0.906	1.3	0.792	0.71	1.86	0.626	0.635	0.829	0.907
K fixed	0.485	0.947	0.664	1.16	1.27	0.32	0.641	0.792	0.856	0.991
L fixed	0.669	0.903	0.954	0.884	0.831	1.02	0.747	0.746	1.07	0.939
M fixed	1.01	1.02	0.806	1.05	0.751	0.754	0.576	0.799	0.83	0.945
N fixed	0.757	1.02	0.666	0.928	1.14	0.683	1.56	1.26	0.798	1.06
P fixed	0.226	0.839	1.02	1.2	0.977	2.09	0.878	1.02	1.17	1.15
Q fixed	0.959	0.987	0.726	1.06	0.95	0.753	1.16	0.922	1.04	0.944
R fixed	0.519	1.22	0.98	1.39	1.4	0.291	0.738	0.883	0.875	1.1
S fixed	1.52	1.14	0.882	0.862	1.11	0.572	1.43	1.19	0.841	0.875
T fixed	1.14	1.2	0.795	0.893	1.06	1.21	1.03	0.908	0.681	0.748
V fixed	0.955	0.904	1.05	0.781	0.712	1.38	0.738	0.594	0.733	0.749
W fixed	1.17	1.48	2.17	1.33	1.52	0.556	0.859	1.26	1.45	1.38
pThr fixed	1.35	1.11	0.787	0.528	0.963	1.12	1.48	1.74	1.05	1.02
pTyr fixed	1.57	1.13	0.585	0.593	0.94	0.966	2.02	1.99	1.38	1.05
